Results from paper PMC5510989.
Numbering of substitutions follows the chain as printed. Numbers in names are those of the source.

B1: MBP-DDX1 WT (DEAD-Box Protein 1 fused to maltose binding protein) (enzyme)
chain: MAAFSEMGVMPEIAQAVEEMDWLLPTDIQAESIPLILGGGDVLMAAETGSGKTGAFSIPVIQIVYETLKDQQEGKKGKTTIKTGASVLNKWQMNPYDRGSAFAIGSDGLCCQSREVKEWHGCRATKGLMKGKHYYEVSCHDQGLCRVGWSTMQASLDLGTDKFGFGFGGTGKKSHNKQFDNYGEEFTMHDTIGCYLDIDKGHVKFSKNGKDLGLAFEIPPHMKNQALFPACVLKNAELKFNFGEEEFKFPPKDGFVALSKAPDGYIVKSQHSGNAQVTQTKFLPNAPKALIVEPSRELAEQTLNNIKQFKKYIDNPKLRELLIIGGVAARDQLSVLENGVDIVVGTPGRLDDLVSTGKLNLSQVRFLVLDEADGLLSQGYSDFINRMHNQIPQVTSDGKRLQVIVCSATLHSFDVKKLSEKIMHFPTWVDLKGEDSVPDTVHHVVVPVNPKTDRLWERLGKSHIRTDDVHAKDNTRPGANSPEMWSEAIKILKGEYAVRAIKEHKMDQAIIFCRTKIDCDNLEQYFIQQGGGPDKKGHQFSCVCLHGDRKPHERKQNLERFKKGDVRFLICTDVAARGIDIHGVPYVINVTLPDEKQNYVHRIGRVGRAERMGLAISLVATEKEKVWYHVCSSRGKGCYNTRLKEDGGCTIWYNEMQLLSEIEEHLNCTISQVEPDIKVPVDEFDGKVTYGQKRAAGGGSYKGHVDILAPTVQELAALEKEAQTSFLHLGYLPNQLFRTF
B2: MBP-DDX1 L322E (enzyme)
chain: B1 chain with L322E
B3: MBP-DDX1 L303E (enzyme)
chain: B1 chain with L303E
B4: MBP-DDX1 G325E (enzyme)
chain: B1 chain with G325E
B5: MBP-DDX1 K52N (enzyme)
chain: B1 chain with K52N

Target: HIV-1 Rev (Regulator of Expression of Virion), Alexa-labelled (HIV-1 isolate BH10)
Assay: fluorescence polarisation

Molecule	Kd [nM]
MBP-DDX1 DEAD N-term + SPRY (domain or fragment)	43
B1	59
B2	> 500
B3	> 700
B4	29
B5	65
